# Data reported in paper PMC8386928 (Science Advances, 2021).
# B1: nanobody D8 (VHH)
# VHH: QVQLVESGGGLVQPGGSLRLLCVASGRPFNDYDMGWFRQAPGKEREFVASISWSGRVTDYSDSMKGRCTVSRDNAKGTMFLQMSNLVPRDTAVYYCAAARRRWTFKATNTEEFYETWGQGTQVTVSS
# Biological target: biotinylated PepT2 (C-terminal Avi tag) (Rattus norvegicus, UniProt Q63424, biotin (on the Avi tag, by BirA))
# Experiment: BLI
# biotinylated PepT2 (C-terminal Avi tag), sequence (Q63424 whole entry): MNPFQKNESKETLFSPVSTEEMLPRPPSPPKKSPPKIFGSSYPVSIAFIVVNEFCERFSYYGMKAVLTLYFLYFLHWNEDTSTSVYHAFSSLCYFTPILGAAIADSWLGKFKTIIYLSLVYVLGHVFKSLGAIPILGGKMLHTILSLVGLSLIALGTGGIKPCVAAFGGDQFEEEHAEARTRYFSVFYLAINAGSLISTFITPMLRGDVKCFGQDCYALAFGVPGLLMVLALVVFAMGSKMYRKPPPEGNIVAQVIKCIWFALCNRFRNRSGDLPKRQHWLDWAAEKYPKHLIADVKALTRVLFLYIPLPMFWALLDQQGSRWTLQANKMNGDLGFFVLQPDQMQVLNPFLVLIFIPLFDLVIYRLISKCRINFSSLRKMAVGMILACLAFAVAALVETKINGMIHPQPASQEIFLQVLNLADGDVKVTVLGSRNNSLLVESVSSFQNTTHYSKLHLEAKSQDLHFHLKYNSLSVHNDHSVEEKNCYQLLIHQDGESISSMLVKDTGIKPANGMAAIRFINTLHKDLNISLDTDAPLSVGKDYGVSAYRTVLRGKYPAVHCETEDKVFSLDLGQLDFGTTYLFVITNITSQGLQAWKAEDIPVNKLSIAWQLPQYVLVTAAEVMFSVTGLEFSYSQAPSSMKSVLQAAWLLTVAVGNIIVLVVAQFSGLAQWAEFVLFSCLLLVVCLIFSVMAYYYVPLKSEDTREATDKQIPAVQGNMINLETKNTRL
binder,measurement,value
B1,Kd,~25 nM
